The text below walks through data of US9937235B2, “Lipidated peptides as anti-obesity agents” (USTAV ORGANICKE CHEMIE A BIOCHEMIE AKADEMIE VED CR, V.V.I, priority 2012, dated 2018).

In one test the test system is fasted C57BL/6 mice. Put plainly: Food intake in fasted mice after SC administration. The note with it: fasted C57BL/6 mice, 5 mg/kg SC, 45 min. It is filed as in vivo, mouse. The protocol:
Male C57BL/6 mice (An Lab, Prague 4) were bred in the accredited animal facility in the Institute of Organic Chemistry and Biochemistry, Czech Academy of Sciences, Prague, at the Institute of Molecular Genetics, Prague 4, at the temperature of 22±2° C. with access to food and water ad libitum. The day/night cycle was 12/12 hours (light turned on at 6:00 am). Animals were treated according to the Animal Protection Act (Act No. 246/1992). The males were fed standard chow diet St-1 (Mlýn Kocanda, Praha, Czech Republic) which contained 66% saccharides, 25% proteins and 9% lipids with a caloric value of 3.4 kcal/g.
The food was withdrawn 17 hours prior to injection of lipidated peptide and free access to water was maintained. The administration of saline, PrRP or lipidated analogs was performed either by SC injection at doses of 1-10 mg/kg (volume 0.2 ml/mouse), or by ICV using infusion pump (cannulae were inserted into the third brain ventricle 4 days before the experiment following the procedure of Maixnerová et al. (Maixnerová et al., 2011)). The single dose of peptide was 4 nmol/mouse (5 μl/mouse).
Fifteen minutes after the lipidated peptide administration, the mice were given pre-weighed food. The food was then weighed every 30 minutes for 5-10 hours. The administration of every dose was performed at least twice and one group of mice consisted of at least 6 mice. The results were presented as % of food intake as compared with the control group injected with saline.
Statistical evaluation was performed using program Graph-Pad Prism Software (San Diego, Calif., USA), and the one-way ANOVA with a subsequent Dunnettovým post-hoc test. The difference in food intake between mice injected with saline and mice injected with the examined peptide were considered statistically significant at P<0.05.

For test [1], the target named is T1, rat PrRP receptor in RC-4B/C cells (rat, UniProt Q64121 1-370).
T1 construct: whole, on cells; also called the rat receptor; GPR10
T1 sequence (looked up): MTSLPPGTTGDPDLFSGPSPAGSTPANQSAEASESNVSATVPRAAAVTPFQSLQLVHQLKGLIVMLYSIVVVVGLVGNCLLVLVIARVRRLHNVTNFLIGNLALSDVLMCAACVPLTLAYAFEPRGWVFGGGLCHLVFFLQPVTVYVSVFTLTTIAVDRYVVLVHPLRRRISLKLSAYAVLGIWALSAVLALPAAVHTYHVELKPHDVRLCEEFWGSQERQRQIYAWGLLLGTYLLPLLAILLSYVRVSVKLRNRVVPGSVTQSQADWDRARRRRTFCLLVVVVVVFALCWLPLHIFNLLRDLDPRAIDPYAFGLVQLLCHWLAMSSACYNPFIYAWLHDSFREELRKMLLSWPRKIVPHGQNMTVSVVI
The test can be described thus: competition with 125I-rat PrRP31 on RC-4B/C cells. The protocol:
The rat pituitary cell line RC-4B/C (ATCC, Manassas, USA) was grown on 24-well plates which had their bottom coated with polyethyleneimine. The cells were grown to the optimal density of 300-450 thousand per well.
(§1) Plates were incubated for 60 minutes at room temperature. After incubation, the cells were solubilized in 0.1 mol/l solution of NaOH and the radioactivity bound to the cells was counted using a γ-counter. The experiments were performed in duplicate and repeated at least three times.
For evaluation of competitive binding experiments, the program Graph Pad Prism Software (San Diego, Calif., USA) was used. A method of nonlinear regression assuming one-site binding was used.

Test [2] deals with T2, human PrRP receptor, GPR10, transfected in CHO cells (human, UniProt P49683 1-370).
T2 construct: whole, on cells; also called human GPR10 receptor; the human receptor GPR10 in CHO cells
T2 sequence (looked up): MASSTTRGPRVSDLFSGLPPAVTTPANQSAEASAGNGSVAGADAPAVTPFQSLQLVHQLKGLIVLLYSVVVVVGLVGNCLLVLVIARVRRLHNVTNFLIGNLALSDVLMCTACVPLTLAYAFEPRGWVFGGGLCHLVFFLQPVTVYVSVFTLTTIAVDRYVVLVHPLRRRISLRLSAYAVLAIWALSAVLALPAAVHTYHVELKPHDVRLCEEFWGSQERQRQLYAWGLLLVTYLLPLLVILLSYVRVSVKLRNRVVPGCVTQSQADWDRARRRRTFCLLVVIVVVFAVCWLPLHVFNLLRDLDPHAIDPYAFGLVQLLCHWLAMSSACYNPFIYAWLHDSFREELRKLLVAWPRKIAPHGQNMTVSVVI
Put plainly: competition with 125I-human PrRP31 on CHO cells with transfected human GPR10. Here is the method: CHO cells with transfected human PrRP receptor, GPR10 (Perkin Elmer, USA) were grown on 24-well plates coated with polyethyleneimine. The cells were grown to the optimal density of 40-80 thousand cells per well.
as §1

Where a SMILES comes first, the peptide text is derived from it. Where no end group is shown, it is not given here. [ ]: non-standard residue; d: D form. The star is where a group is joined. Palmitoyl = CCCCCCCCCCCCCCCC(=O)*; Myristoyl = CCCCCCCCCCCCCC(=O)*; Lauroyl = CCCCCCCCCCCC(=O)*; Decanoyl = CCCCCCCCCC(=O)*; Nle = CCCC[C@H](N)C(=O)O; Octanoyl = CCCCCCCC(=O)*

Turning to `CCCCCCCCCCCC(=O)N[C@@H](CO)C(=O)N[C@@H](CCCNC(=N)N)C(=O)N[C@@H](C)C(=O)N[C@@H](Cc1c[nH]cn1)C(=O)N[C@@H](CCC(N)=O)C(=O)N[C@@H](Cc1c[nH]cn1)C(=O)N[C@@H](CO)C(=O)N[C@@H](CCCC)C(=O)N[C@@H](CCC(=O)O)C(=O)N[C@H](C(=O)N[C@@H](CCCNC(=N)N)C(=O)N[C@H](C(=O)N1CCC[C@H]1C(=O)N[C@@H](CC(=O)O)C(=O)N[C@H](C(=O)N[C@@H](CC(N)=O)C(=O)N1CCC[C@H]1C(=O)N[C@@H](C)C(=O)N[C@@H](Cc1c[nH]c2ccccc12)C(=O)N[C@@H](Cc1ccc(O)cc1)C(=O)N[C@H](C(=O)NCC(=O)N[C@@H](CCCNC(=N)N)C(=O)NCC(=O)N[C@H](C(=O)N[C@@H](CCCNC(=N)N)C(=O)N1CCC[C@H]1C(=O)N[C@H](C(=O)NCC(=O)N[C@@H](CCCNC(=N)N)C(=O)N[C@@H](Cc1ccccc1)C(N)=O)C(C)C)[C@@H](C)CC)[C@@H](C)O)[C@@H](C)CC)[C@@H](C)O)[C@@H](C)O` [Analog 17] (Lauroyl-SRAHQHS[Nle]ETRTPDINPAWYTGRGIRPVGRF-NH2), in the test with fasted C57BL/6 mice, the “Food intake in mice (5 mg/kg SC) % saline-treated group (45 min)” value is on record as 22%.
Consider TPDINPAWYASRGIRPVGRF-NH2 [analog no. 51], for which, in test [1], affinity was put at a Ki of 0.00238 µM. This lies in the single-digit nanomolar range.

B1: analog no. 60 (peptide)
peptide: Myristoyl-SRAHQHSMETRTPDINPAWYTGRGIRPVGRF-NH2
SMILES: CCCCCCCCCCCCCC(=O)N[C@@H](CO)C(=O)N[C@@H](CCCNC(=N)N)C(=O)N[C@@H](C)C(=O)N[C@@H](Cc1c[nH]cn1)C(=O)N[C@@H](CCC(N)=O)C(=O)N[C@@H](Cc1c[nH]cn1)C(=O)N[C@@H](CO)C(=O)N[C@@H](CCSC)C(=O)N[C@@H](CCC(=O)O)C(=O)N[C@H](C(=O)N[C@@H](CCCNC(=N)N)C(=O)N[C@H](C(=O)N1CCC[C@H]1C(=O)N[C@@H](CC(=O)O)C(=O)N[C@H](C(=O)N[C@@H](CC(N)=O)C(=O)N1CCC[C@H]1C(=O)N[C@@H](C)C(=O)N[C@@H](Cc1c[nH]c2ccccc12)C(=O)N[C@@H](Cc1ccc(O)cc1)C(=O)N[C@H](C(=O)NCC(=O)N[C@@H](CCCNC(=N)N)C(=O)NCC(=O)N[C@H](C(=O)N[C@@H](CCCNC(=N)N)C(=O)N1CCC[C@H]1C(=O)N[C@H](C(=O)NCC(=O)N[C@@H](CCCNC(=N)N)C(=O)N[C@@H](Cc1ccccc1)C(N)=O)C(C)C)[C@@H](C)CC)[C@@H](C)O)[C@@H](C)CC)[C@@H](C)O)[C@@H](C)O
Regarding B1, the inhibition constant (Ki) (in general, the dissociation constant of the complex between target and ligand, obtained from inhibition or displacement) in test [1] was 0.00075 µM. This Ki lies about 3.2-fold lower than the previous one.

B2: analog no. 61 (peptide)
peptide: Palmitoyl-SRAHQHSMETRTPDINPAWYTGRGIRPVGRF-NH2
SMILES: CCCCCCCCCCCCCCCC(=O)N[C@@H](CO)C(=O)N[C@@H](CCCNC(=N)N)C(=O)N[C@@H](C)C(=O)N[C@@H](Cc1c[nH]cn1)C(=O)N[C@@H](CCC(N)=O)C(=O)N[C@@H](Cc1c[nH]cn1)C(=O)N[C@@H](CO)C(=O)N[C@@H](CCSC)C(=O)N[C@@H](CCC(=O)O)C(=O)N[C@H](C(=O)N[C@@H](CCCNC(=N)N)C(=O)N[C@H](C(=O)N1CCC[C@H]1C(=O)N[C@@H](CC(=O)O)C(=O)N[C@H](C(=O)N[C@@H](CC(N)=O)C(=O)N1CCC[C@H]1C(=O)N[C@@H](C)C(=O)N[C@@H](Cc1c[nH]c2ccccc12)C(=O)N[C@@H](Cc1ccc(O)cc1)C(=O)N[C@H](C(=O)NCC(=O)N[C@@H](CCCNC(=N)N)C(=O)NCC(=O)N[C@H](C(=O)N[C@@H](CCCNC(=N)N)C(=O)N1CCC[C@H]1C(=O)N[C@H](C(=O)NCC(=O)N[C@@H](CCCNC(=N)N)C(=O)N[C@@H](Cc1ccccc1)C(N)=O)C(C)C)[C@@H](C)CC)[C@@H](C)O)[C@@H](C)CC)[C@@H](C)O)[C@@H](C)O
B2 returned a Ki in test [1] of 0.00041 µM.

B3: analog no. 52 (peptide)
peptide: Octanoyl-TPDINPAWYASRGIRPVGRF-NH2
SMILES: CCCCCCCC(=O)N[C@H](C(=O)N1CCC[C@H]1C(=O)N[C@@H](CC(=O)O)C(=O)N[C@H](C(=O)N[C@@H](CC(N)=O)C(=O)N1CCC[C@H]1C(=O)N[C@@H](C)C(=O)N[C@@H](Cc1c[nH]c2ccccc12)C(=O)N[C@@H](Cc1ccc(O)cc1)C(=O)N[C@@H](C)C(=O)N[C@@H](CO)C(=O)N[C@@H](CCCNC(=N)N)C(=O)NCC(=O)N[C@H](C(=O)N[C@@H](CCCNC(=N)N)C(=O)N1CCC[C@H]1C(=O)N[C@H](C(=O)NCC(=O)N[C@@H](CCCNC(=N)N)C(=O)N[C@@H](Cc1ccccc1)C(N)=O)C(C)C)[C@@H](C)CC)[C@@H](C)CC)[C@@H](C)O
On to B3, for which the inhibition constant (Ki) in test [2] came to 3.02 nM.
In test [1], Myristoyl-[code f][code r]GVPRIGRGTYWAPNIDPT-NH2 [analog no. 37] yielded a Ki of 0.364 µM.
In test [1], SHQRPADTHWYPRG[Nle]FPTIGRITARNGEVSR (printed without a C-terminal amide) [analog no. 30] yielded an inhibition constant (Ki) of 1320 µM.
In the case of Palmitoyl-SRTHRHSMEIRTPDINPAWYASRGIRPVGRF-NH2 [analog no. 57], in test [1], affinity was put at a Ki of 0.00028 µM.

B4: analog no. 56 (peptide)
peptide: Myristoyl-SRTHRHSMEIRTPDINPAWYASRGIRPVGRF-NH2
SMILES: CCCCCCCCCCCCCC(=O)N[C@@H](CO)C(=O)N[C@@H](CCCNC(=N)N)C(=O)N[C@H](C(=O)N[C@@H](Cc1c[nH]cn1)C(=O)N[C@@H](CCCNC(=N)N)C(=O)N[C@@H](Cc1c[nH]cn1)C(=O)N[C@@H](CO)C(=O)N[C@@H](CCSC)C(=O)N[C@@H](CCC(=O)O)C(=O)N[C@H](C(=O)N[C@@H](CCCNC(=N)N)C(=O)N[C@H](C(=O)N1CCC[C@H]1C(=O)N[C@@H](CC(=O)O)C(=O)N[C@H](C(=O)N[C@@H](CC(N)=O)C(=O)N1CCC[C@H]1C(=O)N[C@@H](C)C(=O)N[C@@H](Cc1c[nH]c2ccccc12)C(=O)N[C@@H](Cc1ccc(O)cc1)C(=O)N[C@@H](C)C(=O)N[C@@H](CO)C(=O)N[C@@H](CCCNC(=N)N)C(=O)NCC(=O)N[C@H](C(=O)N[C@@H](CCCNC(=N)N)C(=O)N1CCC[C@H]1C(=O)N[C@H](C(=O)NCC(=O)N[C@@H](CCCNC(=N)N)C(=O)N[C@@H](Cc1ccccc1)C(N)=O)C(C)C)[C@@H](C)CC)[C@@H](C)CC)[C@@H](C)O)[C@@H](C)CC)[C@@H](C)O
As for B4, the inhibition constant Ki in test [1] stood at 0.00095 µM. Compared with the last molecule, the Ki is about 3.4-fold higher.

B5: analog no. 53 (peptide)
peptide: Decanoyl-TPDINPAWYASRGIRPVGRF-NH2
SMILES: CCCCCCCCCC(=O)N[C@H](C(=O)N1CCC[C@H]1C(=O)N[C@@H](CC(=O)O)C(=O)N[C@H](C(=O)N[C@@H](CC(N)=O)C(=O)N1CCC[C@H]1C(=O)N[C@@H](C)C(=O)N[C@@H](Cc1c[nH]c2ccccc12)C(=O)N[C@@H](Cc1ccc(O)cc1)C(=O)N[C@@H](C)C(=O)N[C@@H](CO)C(=O)N[C@@H](CCCNC(=N)N)C(=O)NCC(=O)N[C@H](C(=O)N[C@@H](CCCNC(=N)N)C(=O)N1CCC[C@H]1C(=O)N[C@H](C(=O)NCC(=O)N[C@@H](CCCNC(=N)N)C(=O)N[C@@H](Cc1ccccc1)C(N)=O)C(C)C)[C@@H](C)CC)[C@@H](C)CC)[C@@H](C)O
In turn, B5 had an inhibition constant (Ki) in test [2] of 2.41 nM. This lies in the single-digit nanomolar range.
